This passage reports Km, kcat and kcat/Km results from publication PMC4288329, “Characterization of the inositol monophosphatase gene family in Arabidopsis” (Frontiers in Plant Science, 2015).

Common to all, as to experiment: malachite green phosphate release assay, Michaelis-Menten fit
Common to all, as to assay type: biochemical, Arabidopsis thaliana

Substrate in series [1]: O=P(O)(O)O[C@H]1O[C@H](CO)[C@H](O)[C@H](O)[C@H]1O
To be noted: 50 mM Tris pH 9, 3 mM MgCl2, 22°C in table note (25°C in methods), substrate 0-1 mM, value approximated. The source says:
(§1) malachite green phosphate release assay, Michaelis-Menten fit on IMPL1 (AtIMPL1)

Substrate in series [2]: O=P(O)(O)O[C@@H]1[C@H](O)[C@H](O)[C@@H](O)[C@H](O)[C@H]1O
The settings on record: 50 mM Tris pH 9, 3 mM MgCl2, 22°C in table note (25°C in methods), substrate 0-1 mM, substrate inhibition above 1 mM.
Text: as §1

Substrate in series [3]: N[C@H](COP(=O)(O)O)Cc1c[nH]cn1
To be noted: 50 mM Tris-Cl pH 7.5, 2 mM MgCl2, 22°C in table note (25°C in methods), substrate 0-1 mM. An excerpt:
malachite green phosphate release assay, Michaelis-Menten fit on IMPL2 (AtIMPL2)

For orientation: Km means the concentration of substrate that gives half-maximal velocity. What is called kcat is the number of substrate molecules converted per active site and unit of time at saturation. Usually kcat/Km stands for the second-order rate constant that governs catalysis at low substrate concentration.

B1: IMPL1 (AtIMPL1) (Arabidopsis thaliana) (protein)
chain: TTGTISPAHLLEVVELAAKTGAEVVMEAVNKPRNITYKGLSDLVTDTDKASEAAILEVVKKNFSDHLILGEEGGIIGDSSSDYLWCIDPLDGTTNFAHGYPSFAVSVGVLYRGNPAAASVVEFVGGPMCWNTRTFSATAGGGALCNGQKIHVSKTDAVERALLITGFGYEHDDAWSTNMELFKEFTDVSRGVRRLGAAAVDMCHVALGIAESYWEYRLKPWDMAAGVLIVEEAGGAVTRMDGGKFSVFDRSVLVSNGVLHPKLLERIAPATENLKSKGIDFSLWFKPEDYHTEL
notes: plasmid pAtIMPL1H
In the case of B1, in series [1], the Michaelis constant (Km) stood at 450 ± 60 µM, the catalytic constant (kcat) turned out to be 2.4 ± 1.3 s⁻¹ and the catalytic efficiency (kcat/Km) came to 5300 ± 500 M⁻¹ s⁻¹. Besides, in series [2], the Michaelis constant (Km) was found to be 180 ± 3 µM, the catalytic constant (kcat) was 0.6 ± 0.1 s⁻¹ and the kcat/Km amounted to 3300 ± 100 M⁻¹ s⁻¹.

B2: IMPL2 (AtIMPL2) (Arabidopsis thaliana) (protein)
chain: LSDTELDRFAAVGNALADASGEVIRKYFRKKFDIVDKDDMSPVTIADQMAEEAMVSIIFQNLPSHAIYGEEKGWRCKEESADYVWVLDPIDGTKSFITGKPVFGTLIALLYKGKPILGLIDQPILKERWIGMNGRRTKLNGEDISTRSCPKLSQAYLYTTSPHLFSEEAEKAYSRVRDKVKVPLYGCDCYAYALLASGFVDLVIESGLKPYDFLALVPVIEGAGGTITDWTGKRFLWEASSSAVATSFNVVAAGDSDIHQQALESLEWH
notes: plasmid pAtIMPL2H
Consider B2, for which, in series [3], the Km amounted to 180 ± 5 µM, the catalytic constant (kcat) worked out at 1.3 ± 0.2 s⁻¹ and the catalytic efficiency (kcat/Km) is 7900 ± 200 M⁻¹ s⁻¹.
